Reference: US20220175946A1 (MAGENTA THERAPEUTICS, published 2022)

B1: Antibody 67 (Ab67) (antibody, V domains shown)
VH: EVQLVESGGGLVQPGGSLRLSCAASGFTFSDADMDWVRQAPGKGLEWVGRTRNKAGSYTTEYAASVKGRFTISRDDSKNSLYLQMNSLKTEDTAVYYCAREPKYWIDFDLWGRGTLVTVSS
VL: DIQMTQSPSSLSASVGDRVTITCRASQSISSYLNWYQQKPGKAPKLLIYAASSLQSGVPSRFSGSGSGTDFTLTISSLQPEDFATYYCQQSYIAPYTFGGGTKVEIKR
B2: Antibody 69 (Ab69) (antibody, V domains shown)
VH: EVQLVESGGGLVQPGGSLRLSCAASGFTFVDHDMDWVRQAPGKGLEWVGRTRNKLGSYTTEYAASVKGRFTISRDDSKNSLYLQMNSLKTEDTAVYYCAREPKYWIDFDLWGRGTLVTVSS
VL: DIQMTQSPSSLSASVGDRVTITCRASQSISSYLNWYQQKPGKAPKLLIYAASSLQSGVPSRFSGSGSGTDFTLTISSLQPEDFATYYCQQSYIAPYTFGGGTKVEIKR
B3: Antibody 66 (Ab66) (antibody, V domains shown)
VH: EVQLVESGGGLVQPGGSLRLSCAASGFTFSDHYMDWVRQAPGKGLEWVGRTRNKASSYTTEYAASVKGRFTISRDDSKNSLYLQMNSLKTEDTAVYYCAREPKYWIDFDLWGRGTLVTVSS
VL: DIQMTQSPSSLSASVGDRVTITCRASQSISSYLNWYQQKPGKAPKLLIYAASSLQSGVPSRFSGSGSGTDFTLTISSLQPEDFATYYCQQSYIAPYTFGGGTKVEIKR
B4: Antibody 68 (Ab68) (antibody, V domains shown)
VH: EVQLVESGGGLVQPGRSLRLSCTASGFTFSDHDMNWVRQAPGKGLEWVGRTRNAAGSYTTEYAASVKGRFTISRDDSKNSLYLQMNSLKTEDTAVYYCAREPKYWIDFDLWGRGTLVTVSS
VL: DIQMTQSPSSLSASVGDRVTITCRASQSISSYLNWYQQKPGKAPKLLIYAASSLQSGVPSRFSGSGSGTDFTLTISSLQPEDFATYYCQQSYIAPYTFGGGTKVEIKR
B5: Antibody 56 (Ab56) (antibody, V domains shown)
VH: QVQLVQSGAEVKKPGSSVKVSCKASGGTFSLYAISWVRQAPGQGLEWMGGIIPAFGTANYAQKFQGRVTITADESTSTAYMELSSLRSEDTAVYYCARGGLDTDEFDLWGRGTLVTVSS
VL: DIQMTQSPSSLSASVGDRVTITCRASQSINSYLNWYQQKPGKAPKLLIYAASSLQSGVPSRFSGSGSGTDFTLTISSLQPEDFATYYCQQGVSDITFGGGTKVEIKR
B6: Antibody 57 (Ab57) (antibody, V domains shown)
VH: QVQLVQSGAEVKKPGSSVKVSCKASGGTFSLYAISWVRQAPGQGLEWMGGIIPHFGLANYAQKFQGRVTITADESTSTAYMELSSLRSEDTAVYYCARGGLDTDEFDLWGRGTLVTVSS
VL: DIQMTQSPSSLSASVGDRVTITCRASQSINSYLNWYQQKPGKAPKLLIYAASSLQSGVPSRFSGSGSGTDFTLTISSLQPEDFATYYCQQGVSDITFGGGTKVEIKR
B7: Antibody 54 (Ab54) (antibody, V domains shown)
VH: QVQLVQSGAEVKKPGSSVKVSCKASGGTFSSYAISWVRQAPGQGLEWMGGIIPIFGTANYAQKFQGRVTITADESTSTAYMELSSLRSEDTAVYYCARGGLDTDEFDLWGRGTLVTVSS
VL: DIQMTQSPSSLSASVGDRVTITCRASQSINSYLNWYQQKPGKAPKLLIYAASSLQSGVPSRFSGSGSGTDFTLTISSLQPEDFATYYCQQGVSDITFGGGTKVEIKR
B8: Antibody 55 (Ab55) (antibody, V domains shown)
VH: QVQLVQSGAEVKKPGSSVKVSCKASGGTFRIYAISWVRQAPGQGLEWMGGIIPDFGVANYAQKFQGRVTITADESTSTAYMELSSLRSEDTAVYYCARGGLDTDEFDLWGRGTLVTVSS
VL: DIQMTQSPSSLSASVGDRVTITCRASQSINSYLNWYQQKPGKAPKLLIYAASSLQSGVPSRFSGSGSGTDFTLTISSLQPEDFATYYCQQGVSDITFGGGTKVEIKR
B9: CK6 (antibody, V domains shown)
VH: QVQLVQSGAAVKKPGESLKISCKGSGYRFTSYWIGWVRQMPGKGLEWMGIIYPGDSDTRYSPSFQGQVTISAGKSISTAYLQWSSLKASDTAMYYCARHGRGYNGYEGAFDIWGQGTMVTVSS
VL: AIQLTQSPSSLSASVGDRVTITCRASQGISSALAWYQQKPGKAPKLLIYDASSLESGVPSRFSGSGSGTDFTLTISSLQPEDFATYYCQQFNSYPLTFGGGTKVEIK
B10: Antibody 58 (Ab58) (antibody, V domains shown)
VH: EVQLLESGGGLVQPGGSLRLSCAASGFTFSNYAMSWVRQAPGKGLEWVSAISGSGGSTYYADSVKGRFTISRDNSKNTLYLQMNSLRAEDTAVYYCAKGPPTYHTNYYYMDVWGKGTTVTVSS
VL: DIQMTQSPSSVSASVGDRVTITCRASQGISSWLAWYQQKPGKAPKLLIYAASSLQSGVPSRFSGSGSGTDFTLTISSLQPEDFATYYCQQTNSFPYTFGGGTKVEIKR
B11: Antibody 61 (Ab61) (antibody, V domains shown)
VH: EVQLLESGGGLVQPGGSLRLSCAASGFTFSSYVMIWVRQAPGKGLEWVSSISGDSVTTYYADSVKGRFTISRDNSKNTLYLQMNSLRAEDTAVYYCAKGPPTYHTNYYYMDVWGKGTTVTVSS
VL: DIQMTQSPSSVSASVGDRVTITCRASQGISSWLAWYQQKPGKAPKLLIYAASSLQSGVPSRFSGSGSGTDFTLTISSLQPEDFATYYCQQTNSFPYTFGGGTKVEIKR

target: Human CD117 as expressed on cells (Kasumi-1 cells; primary human CD34+ bone marrow cells) (human, UniProt P10721 26-976); test: cell-based or functional assay
Sequence (P10721 26-976 limits assumed): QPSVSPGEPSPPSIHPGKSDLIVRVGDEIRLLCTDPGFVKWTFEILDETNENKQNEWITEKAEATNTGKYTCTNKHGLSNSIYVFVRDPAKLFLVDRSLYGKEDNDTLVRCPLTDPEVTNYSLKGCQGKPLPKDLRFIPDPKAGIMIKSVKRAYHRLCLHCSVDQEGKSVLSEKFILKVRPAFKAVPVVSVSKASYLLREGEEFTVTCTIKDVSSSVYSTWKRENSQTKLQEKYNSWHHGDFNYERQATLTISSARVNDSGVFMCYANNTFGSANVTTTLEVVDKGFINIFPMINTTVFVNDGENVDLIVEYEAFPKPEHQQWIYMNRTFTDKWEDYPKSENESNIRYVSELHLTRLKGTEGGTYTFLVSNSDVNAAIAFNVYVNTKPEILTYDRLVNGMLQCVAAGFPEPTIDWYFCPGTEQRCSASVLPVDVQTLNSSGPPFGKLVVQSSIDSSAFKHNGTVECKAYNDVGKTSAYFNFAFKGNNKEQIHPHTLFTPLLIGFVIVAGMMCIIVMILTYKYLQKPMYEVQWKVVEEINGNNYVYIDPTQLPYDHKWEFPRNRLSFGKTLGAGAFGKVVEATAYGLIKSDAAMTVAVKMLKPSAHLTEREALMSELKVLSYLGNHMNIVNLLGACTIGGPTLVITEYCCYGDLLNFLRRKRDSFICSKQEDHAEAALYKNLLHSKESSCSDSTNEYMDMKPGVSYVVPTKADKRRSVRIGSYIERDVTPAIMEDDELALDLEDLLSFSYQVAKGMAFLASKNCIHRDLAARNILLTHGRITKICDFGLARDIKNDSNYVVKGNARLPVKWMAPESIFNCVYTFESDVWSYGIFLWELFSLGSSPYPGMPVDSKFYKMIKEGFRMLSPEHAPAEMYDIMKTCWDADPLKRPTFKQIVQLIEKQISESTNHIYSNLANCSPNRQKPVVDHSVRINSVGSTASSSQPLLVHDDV

Q: B1 was tested. Which “AUC Kasumi-1 Killing (AUC hIgG1 - AUC MAC ID#)” value (shortened to “AUC Kasumi-1 Killing”) did it give?
A: 156000

Q: B2 was tested. Which “AUC Kasumi-1 Killing” value did it give?
A: 40000

Q: How did the “AUC Kasumi-1 Killing” value turn out when B3 was run?
A: 135000

Q: B4 was tested. Which “AUC Kasumi-1 Killing” value did it give?
A: 14400

Q: How did the “AUC Kasumi-1 Killing” value turn out when B5 was run?
A: 193000

Q: How did the “AUC Kasumi-1 Killing” value turn out when B6 was run?
A: 157000

Q: With B7 as the binder, how does the “AUC Kasumi-1 Killing” value read?
A: 155000

Q: With B8 as the binder, how does the “AUC Kasumi-1 Killing” value read?
A: 226000

Q: Which “AUC Kasumi-1 Killing” value does the source give for B9 here?
A: 132000

Q: For B10, which “AUC Kasumi-1 Killing” value is on record?
A: 97400

Q: B11 was tested. Which “AUC Kasumi-1 Killing” value did it give?
A: 78600
